Starred links: 1 amine or outer side, 2 acyl side, 3 side chain; linkers in the order of their positions; H or OH if unused. Non-standard residues stand in square brackets, D forms with d. Groups on a side chain read outwards from the residue. No end group written: not given here. *: point of attachment. C20 diacid = O=C(O)CCCCCCCCCCCCCCCCCCC(=O)*; γGlu = O=C(O)[C@H](CCC(=O)[*:2])N[*:1]; 4Pal = N[C@@H](Cc1ccncc1)C(=O)O; αMeL = CC(C)C[C@](C)(N)C(=O)O; AEEA = NCCOCCOCC(=O)O; Aib = CC(C)(N)C(=O)O
T1: human glucose-dependent insulinotropic peptide receptor (human, UniProt P48546 22-466)
T1 sequence (looked up): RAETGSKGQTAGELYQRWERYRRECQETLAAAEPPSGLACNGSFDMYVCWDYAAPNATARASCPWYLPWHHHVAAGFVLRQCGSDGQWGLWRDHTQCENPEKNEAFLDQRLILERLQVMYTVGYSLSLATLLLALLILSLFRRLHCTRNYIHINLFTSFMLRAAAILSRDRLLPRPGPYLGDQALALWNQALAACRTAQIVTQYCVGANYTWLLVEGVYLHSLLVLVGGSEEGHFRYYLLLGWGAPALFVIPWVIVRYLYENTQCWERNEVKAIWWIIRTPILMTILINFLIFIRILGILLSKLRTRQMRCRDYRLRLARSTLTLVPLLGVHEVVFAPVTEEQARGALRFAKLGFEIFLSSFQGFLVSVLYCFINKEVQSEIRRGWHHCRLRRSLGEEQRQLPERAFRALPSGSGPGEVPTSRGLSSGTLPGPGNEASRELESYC

B1: Example 69 (peptide)
peptide: Y[Aib]EGTFISDYSI[αMeL]LDKK([AEEA-AEEA-γGlu-C20 diacid])HQ[Aib]DFVEYLLEGGPSSGAPPPS-NH2
modifications: N-terminus assumed
SMILES: CC[C@H](C)[C@H](NC(=O)[C@H](Cc1ccccc1)NC(=O)[C@@H](NC(=O)CNC(=O)[C@H](CCC(=O)O)NC(=O)C(C)(C)NC(=O)[C@@H](N)Cc1ccc(O)cc1)[C@@H](C)O)C(=O)N[C@@H](CO)C(=O)N[C@@H](CC(=O)O)C(=O)N[C@@H](Cc1ccc(O)cc1)C(=O)N[C@@H](CO)C(=O)N[C@H](C(=O)N[C@@](C)(CC(C)C)C(=O)N[C@@H](CC(C)C)C(=O)N[C@@H](CC(=O)O)C(=O)N[C@@H](CCCCN)C(=O)N[C@@H](CCCCNC(=O)COCCOCCNC(=O)COCCOCCNC(=O)CC[C@H](NC(=O)CCCCCCCCCCCCCCCCCCC(=O)O)C(=O)O)C(=O)N[C@@H](Cc1c[nH]cn1)C(=O)N[C@@H](CCC(N)=O)C(=O)NC(C)(C)C(=O)N[C@@H](CC(=O)O)C(=O)N[C@@H](Cc1ccccc1)C(=O)N[C@H](C(=O)N[C@@H](CCC(=O)O)C(=O)N[C@@H](Cc1ccc(O)cc1)C(=O)N[C@@H](CC(C)C)C(=O)N[C@@H](CC(C)C)C(=O)N[C@@H](CCC(=O)O)C(=O)NCC(=O)NCC(=O)N1CCC[C@H]1C(=O)N[C@@H](CO)C(=O)N[C@@H](CO)C(=O)NCC(=O)N[C@@H](C)C(=O)N1CCC[C@H]1C(=O)N1CCC[C@H]1C(=O)N1CCC[C@H]1C(=O)N[C@@H](CO)C(N)=O)C(C)C)[C@@H](C)CC
B2: Example 71 (peptide)
peptide: Y[Aib]EGTFISDYSI[αMeL]LDKK([AEEA-AEEA-γGlu-C20 diacid])HQ[Aib]DFVEWLLETGPSSGAPPPS-NH2
modifications: N-terminus assumed
SMILES: CC[C@H](C)[C@H](NC(=O)[C@H](Cc1ccccc1)NC(=O)[C@@H](NC(=O)CNC(=O)[C@H](CCC(=O)O)NC(=O)C(C)(C)NC(=O)[C@@H](N)Cc1ccc(O)cc1)[C@@H](C)O)C(=O)N[C@@H](CO)C(=O)N[C@@H](CC(=O)O)C(=O)N[C@@H](Cc1ccc(O)cc1)C(=O)N[C@@H](CO)C(=O)N[C@H](C(=O)N[C@@](C)(CC(C)C)C(=O)N[C@@H](CC(C)C)C(=O)N[C@@H](CC(=O)O)C(=O)N[C@@H](CCCCN)C(=O)N[C@@H](CCCCNC(=O)COCCOCCNC(=O)COCCOCCNC(=O)CC[C@H](NC(=O)CCCCCCCCCCCCCCCCCCC(=O)O)C(=O)O)C(=O)N[C@@H](Cc1c[nH]cn1)C(=O)N[C@@H](CCC(N)=O)C(=O)NC(C)(C)C(=O)N[C@@H](CC(=O)O)C(=O)N[C@@H](Cc1ccccc1)C(=O)N[C@H](C(=O)N[C@@H](CCC(=O)O)C(=O)N[C@@H](Cc1c[nH]c2ccccc12)C(=O)N[C@@H](CC(C)C)C(=O)N[C@@H](CC(C)C)C(=O)N[C@@H](CCC(=O)O)C(=O)N[C@H](C(=O)NCC(=O)N1CCC[C@H]1C(=O)N[C@@H](CO)C(=O)N[C@@H](CO)C(=O)NCC(=O)N[C@@H](C)C(=O)N1CCC[C@H]1C(=O)N1CCC[C@H]1C(=O)N1CCC[C@H]1C(=O)N[C@@H](CO)C(N)=O)[C@@H](C)O)C(C)C)[C@@H](C)CC
B3: Example 68 (peptide)
peptide: Y[Aib]EGTFISDYSI[αMeL]LDKK([AEEA-AEEA-γGlu-C20 diacid])HQ[Aib]DFVEYLLEAGPSSGAPPPS-NH2
modifications: N-terminus assumed
SMILES: CC[C@H](C)[C@H](NC(=O)[C@H](Cc1ccccc1)NC(=O)[C@@H](NC(=O)CNC(=O)[C@H](CCC(=O)O)NC(=O)C(C)(C)NC(=O)[C@@H](N)Cc1ccc(O)cc1)[C@@H](C)O)C(=O)N[C@@H](CO)C(=O)N[C@@H](CC(=O)O)C(=O)N[C@@H](Cc1ccc(O)cc1)C(=O)N[C@@H](CO)C(=O)N[C@H](C(=O)N[C@@](C)(CC(C)C)C(=O)N[C@@H](CC(C)C)C(=O)N[C@@H](CC(=O)O)C(=O)N[C@@H](CCCCN)C(=O)N[C@@H](CCCCNC(=O)COCCOCCNC(=O)COCCOCCNC(=O)CC[C@H](NC(=O)CCCCCCCCCCCCCCCCCCC(=O)O)C(=O)O)C(=O)N[C@@H](Cc1c[nH]cn1)C(=O)N[C@@H](CCC(N)=O)C(=O)NC(C)(C)C(=O)N[C@@H](CC(=O)O)C(=O)N[C@@H](Cc1ccccc1)C(=O)N[C@H](C(=O)N[C@@H](CCC(=O)O)C(=O)N[C@@H](Cc1ccc(O)cc1)C(=O)N[C@@H](CC(C)C)C(=O)N[C@@H](CC(C)C)C(=O)N[C@@H](CCC(=O)O)C(=O)N[C@@H](C)C(=O)NCC(=O)N1CCC[C@H]1C(=O)N[C@@H](CO)C(=O)N[C@@H](CO)C(=O)NCC(=O)N[C@@H](C)C(=O)N1CCC[C@H]1C(=O)N1CCC[C@H]1C(=O)N1CCC[C@H]1C(=O)N[C@@H](CO)C(N)=O)C(C)C)[C@@H](C)CC
B4: Example 70 (peptide)
peptide: Y[Aib]EGTFISDYSI[αMeL]LDKK([AEEA-AEEA-γGlu-C20 diacid])HQ[Aib]DFVE[4Pal]LLATGPSSGAPPPS-NH2
modifications: N-terminus assumed
SMILES: CC[C@H](C)[C@H](NC(=O)[C@H](Cc1ccccc1)NC(=O)[C@@H](NC(=O)CNC(=O)[C@H](CCC(=O)O)NC(=O)C(C)(C)NC(=O)[C@@H](N)Cc1ccc(O)cc1)[C@@H](C)O)C(=O)N[C@@H](CO)C(=O)N[C@@H](CC(=O)O)C(=O)N[C@@H](Cc1ccc(O)cc1)C(=O)N[C@@H](CO)C(=O)N[C@H](C(=O)N[C@@](C)(CC(C)C)C(=O)N[C@@H](CC(C)C)C(=O)N[C@@H](CC(=O)O)C(=O)N[C@@H](CCCCN)C(=O)N[C@@H](CCCCNC(=O)COCCOCCNC(=O)COCCOCCNC(=O)CC[C@H](NC(=O)CCCCCCCCCCCCCCCCCCC(=O)O)C(=O)O)C(=O)N[C@@H](Cc1c[nH]cn1)C(=O)N[C@@H](CCC(N)=O)C(=O)NC(C)(C)C(=O)N[C@@H](CC(=O)O)C(=O)N[C@@H](Cc1ccccc1)C(=O)N[C@H](C(=O)N[C@@H](CCC(=O)O)C(=O)N[C@@H](Cc1ccncc1)C(=O)N[C@@H](CC(C)C)C(=O)N[C@@H](CC(C)C)C(=O)N[C@@H](C)C(=O)N[C@H](C(=O)NCC(=O)N1CCC[C@H]1C(=O)N[C@@H](CO)C(=O)N[C@@H](CO)C(=O)NCC(=O)N[C@@H](C)C(=O)N1CCC[C@H]1C(=O)N1CCC[C@H]1C(=O)N1CCC[C@H]1C(=O)N[C@@H](CO)C(N)=O)[C@@H](C)O)C(C)C)[C@@H](C)CC
B5: Example 73 (peptide)
peptide: Y[Aib]EGTLISDYSI[αMeL]LDKK([AEEA-AEEA-γGlu-C20 diacid])HQ[Aib]EFVEYLLEGGPSSGAPPPS-NH2
modifications: N-terminus assumed
SMILES: CC[C@H](C)[C@H](NC(=O)[C@H](CC(C)C)NC(=O)[C@@H](NC(=O)CNC(=O)[C@H](CCC(=O)O)NC(=O)C(C)(C)NC(=O)[C@@H](N)Cc1ccc(O)cc1)[C@@H](C)O)C(=O)N[C@@H](CO)C(=O)N[C@@H](CC(=O)O)C(=O)N[C@@H](Cc1ccc(O)cc1)C(=O)N[C@@H](CO)C(=O)N[C@H](C(=O)N[C@@](C)(CC(C)C)C(=O)N[C@@H](CC(C)C)C(=O)N[C@@H](CC(=O)O)C(=O)N[C@@H](CCCCN)C(=O)N[C@@H](CCCCNC(=O)COCCOCCNC(=O)COCCOCCNC(=O)CC[C@H](NC(=O)CCCCCCCCCCCCCCCCCCC(=O)O)C(=O)O)C(=O)N[C@@H](Cc1c[nH]cn1)C(=O)N[C@@H](CCC(N)=O)C(=O)NC(C)(C)C(=O)N[C@@H](CCC(=O)O)C(=O)N[C@@H](Cc1ccccc1)C(=O)N[C@H](C(=O)N[C@@H](CCC(=O)O)C(=O)N[C@@H](Cc1ccc(O)cc1)C(=O)N[C@@H](CC(C)C)C(=O)N[C@@H](CC(C)C)C(=O)N[C@@H](CCC(=O)O)C(=O)NCC(=O)NCC(=O)N1CCC[C@H]1C(=O)N[C@@H](CO)C(=O)N[C@@H](CO)C(=O)NCC(=O)N[C@@H](C)C(=O)N1CCC[C@H]1C(=O)N1CCC[C@H]1C(=O)N1CCC[C@H]1C(=O)N[C@@H](CO)C(N)=O)C(C)C)[C@@H](C)CC
B6: Example 72 (peptide)
peptide: Y[Aib]EGTLISDYSI[αMeL]LDKK([AEEA-AEEA-γGlu-C20 diacid])HQ[Aib]EFVEYLLETGPSSGAPPPS-NH2
modifications: N-terminus assumed
SMILES: CC[C@H](C)[C@H](NC(=O)[C@H](CC(C)C)NC(=O)[C@@H](NC(=O)CNC(=O)[C@H](CCC(=O)O)NC(=O)C(C)(C)NC(=O)[C@@H](N)Cc1ccc(O)cc1)[C@@H](C)O)C(=O)N[C@@H](CO)C(=O)N[C@@H](CC(=O)O)C(=O)N[C@@H](Cc1ccc(O)cc1)C(=O)N[C@@H](CO)C(=O)N[C@H](C(=O)N[C@@](C)(CC(C)C)C(=O)N[C@@H](CC(C)C)C(=O)N[C@@H](CC(=O)O)C(=O)N[C@@H](CCCCN)C(=O)N[C@@H](CCCCNC(=O)COCCOCCNC(=O)COCCOCCNC(=O)CC[C@H](NC(=O)CCCCCCCCCCCCCCCCCCC(=O)O)C(=O)O)C(=O)N[C@@H](Cc1c[nH]cn1)C(=O)N[C@@H](CCC(N)=O)C(=O)NC(C)(C)C(=O)N[C@@H](CCC(=O)O)C(=O)N[C@@H](Cc1ccccc1)C(=O)N[C@H](C(=O)N[C@@H](CCC(=O)O)C(=O)N[C@@H](Cc1ccc(O)cc1)C(=O)N[C@@H](CC(C)C)C(=O)N[C@@H](CC(C)C)C(=O)N[C@@H](CCC(=O)O)C(=O)N[C@H](C(=O)NCC(=O)N1CCC[C@H]1C(=O)N[C@@H](CO)C(=O)N[C@@H](CO)C(=O)NCC(=O)N[C@@H](C)C(=O)N1CCC[C@H]1C(=O)N1CCC[C@H]1C(=O)N1CCC[C@H]1C(=O)N[C@@H](CO)C(N)=O)[C@@H](C)O)C(C)C)[C@@H](C)CC

Each binder was assayed against T1, human glucose-dependent insulinotropic … (assay: cell-based or functional assay).

| Binder | hGIPR cAMP Rel EC50 [nM] |
| --- | --- |
| B1 | 0.0302 |
| B2 | 0.0721 |
| B3 | 0.0768 |
| B4 | 0.0254 |
| B5 | 0.0151 |
| B6 | 0.0182 |

The binders below were run against human GLP-1 receptor (human, UniProt P43220 24-463) (assay: cell-based or functional assay).

| Binder | hGLP1R cAMP Rel EC50 [nM] |
| --- | --- |
| B1 | > 5000 |
| B2 | > 5000 |
| B3 | > 5000 |
| B4 | > 5000 |
| B5 | > 5000 |
| B6 | > 5000 |

The binders below were run against human glucagon receptor (human, UniProt P47871 26-477) (assay: cell-based or functional assay).
human glucagon receptor, sequence (P47871 26-477): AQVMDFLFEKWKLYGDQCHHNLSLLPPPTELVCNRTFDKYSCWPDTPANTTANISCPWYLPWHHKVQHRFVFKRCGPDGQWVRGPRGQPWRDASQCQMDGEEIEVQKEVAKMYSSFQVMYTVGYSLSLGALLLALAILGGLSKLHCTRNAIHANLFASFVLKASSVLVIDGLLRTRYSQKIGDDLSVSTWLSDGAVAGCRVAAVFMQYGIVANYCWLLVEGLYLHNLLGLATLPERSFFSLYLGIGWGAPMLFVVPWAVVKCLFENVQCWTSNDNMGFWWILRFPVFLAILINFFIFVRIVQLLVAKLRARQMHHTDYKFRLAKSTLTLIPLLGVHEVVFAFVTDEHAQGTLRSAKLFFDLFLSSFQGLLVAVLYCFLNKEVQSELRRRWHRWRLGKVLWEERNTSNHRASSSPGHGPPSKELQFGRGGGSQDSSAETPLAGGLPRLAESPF

| Binder | hGcgR cAMP Rel EC50 [nM] |
| --- | --- |
| B1 | 803 |
| B2 | 581 |
| B3 | 3030 |
| B4 | 3560 |
| B5 | > 5000 |
| B6 | > 5000 |

Reference: patent US20210032299A1 (Eli Lilly, published 2021)
